The source of these data is paper PMC5549892.

For the assay, the target named is BG505 SOSIP.664 gp140 envelope glycoprotein trimer (HIV-1 (BG505)). The assay is described as follows: native gel or EMSA. On the technique in general: In EMSA bound probe runs differently from free probe, usually more slowly.

For “BG505 SOSIP.664 gp140 envelope glycoprotein trimer (complex)”, the stoichiometry N (usually the number of molecules, sites or subunits per partner or assembly) stood at 3.
